The target in one assay is T1, 可溶性CD20 (Genentech) (UniProt P11836).
T1 sequence (looked up): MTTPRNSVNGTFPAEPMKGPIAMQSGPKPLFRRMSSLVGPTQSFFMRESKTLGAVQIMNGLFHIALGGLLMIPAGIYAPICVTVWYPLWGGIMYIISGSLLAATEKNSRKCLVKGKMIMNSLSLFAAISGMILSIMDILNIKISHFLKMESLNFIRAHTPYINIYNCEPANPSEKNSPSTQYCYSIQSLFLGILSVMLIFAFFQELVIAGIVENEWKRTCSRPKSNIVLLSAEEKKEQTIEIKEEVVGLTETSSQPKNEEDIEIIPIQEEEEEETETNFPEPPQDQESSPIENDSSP
Kind of assay: ELISA, soluble CD20 coated on plate. Background: ELISA stands for enzyme-linked immunosorbent assay.

For assay [1], the target named is T2, CD20 on WIL2-S cells (human) (UniProt P11836).
T2 sequence (looked up): T1 sequence (looked up)
Description: cell ELISA, WIL2-S; ratio vs chimeric 2H7.v6.8.

Changes are numbered by the printed parent chain.

B1: hu2H7.v511 (antibody, human IgG1, kappa, V domains shown)
VH: EVQLVESGGGLVQPGGSLRLSCAASGYTFTSYNMHWVRQAPGKGLEWVGAIYPGNGATSYNQKFKGRFTISVDKSKNTLYLQMNSLRAEDTAVYYCARVVYYSYRYWYFDVWGQGTLVTVSS
VL: DIQMTQSPSSLSASVGDRVTITCRASSSVSYLHWYQQKPGKAPKPLIYAPSNLASGVPSRFSGSGSGTDFTLTISSLQPEDFATYYCQQWAFNPPTFGQGTKVEIKR
Turning to B1, the fold increase in binding (vs 2H7.v16 and 2H7.v588) in the assay with 可溶性CD20 (Genentech) amounted to 90 fold.

B2: 人源化2H7型式2 (2H7.v2) (antibody, IgG1, V domains shown)
VH: B1 VH with G49A, A57D, V72R, K74N, Y104N, R105S
VL: B1 VL with L32M, P45L, A91S
As for B2, the 相对结合 in assay [1] stood at 0.01.

B3: 2H7.v3 (antibody, IgG1, V domains shown)
VH: B1 VH with G49A, A57D, Y104N, R105S
VL: B1 VL with L32M, P45L, A91S
As to B3, the 相对结合 in assay [1] is 0.21.

B4: 2H7.v4 (antibody, IgG1, V domains shown)
VH: B1 VH with G49A, A57D, K74N, Y104N, R105S
VL: B1 VL with L32M, P45L, A91S
For B4, the 相对结合 in assay [1] worked out at 0.21.

Values taken from patent CN101151278A.
